# The DeepSol protein solubility set
# Test: soluble on expression in E. coli; label from the status in PepcDB or PDB records
row,Sequence,soluble on expression in E. coli
1,MAGDPNSMTVSHHNASTARFYALRLLPGQEVFSQLHAFVQQNQLRAAWIAGCTGSLTDVALRYAGQEATTSLTGTFEVISLNGTLELTGEHLHLAVSDPYGVMLGGHMMPGCTVRTTLELVIGELPALTFSRQPCAISGYDELHISSRLEHHHHHH,soluble
2,MGSDKIHHHHHHMFKKYDAYLVGYYGMQNSGDDALMYATAWAAKNILGCNNTKVGLYGDYARETQSDNQLPLKFTQQFPGQNRLLHYKTAIQSKRIIFGGGSVLHSESDINLKRQLMSLANQKKSLAVGIGIGPFNSVMAEKSCAKFLNECGYVGVRDNASLAIARNIAPHANVHKTFDLAPLLLCSKQYKPSNRERQGIALTLCSVAIDAMGNTDELEEEKRVEQFVQLITKIYARTGEPITLIEFNGHNVLGDWKINNNIITRLLDKYIPVSIKKYDPNPIALLNKLSGYKAIVSMRLHGSILGYLANTPVLSINYHSKCKGWCDEVGMPEDYKIDLFNLNIEKIVSQIALGVSTTFQQPTLSINNALKNSLSNWSTQNEQFKFYRNYSTV,not soluble
3,MAQQKKTIAVVGATGRQGASLIRVAAAVGHHVRAQVHSLKGLIAEELQAIPNVTLFQGPLLNNVPLMDTLFEGAHLAFINTTSQAGDEIAIGKDLADAAKRAGTIQHYIYSSMPDHSLYGPWPAVPMWAPKFTVENYVRQLGLPSTFVYAGIYNNNFTSLPYPLFQMELMPDGTFEWHAPFDPDIPLPWLDAEHDVGPALLQIFKDGPQKWNGHRIALTFETLSPVQVCAAFSRALNRRVTYVQVPKVEIKVNIPVGYREQLEAIEVVFGEHKAPYFPLPEFSRPAAGSPKGLGPANGKGAGAGMMQGPGGVISQRVTDEARKLWSGWRDMEEYAREVFPIEEEANGLDWML,soluble
4,MSKWIILSDNHKETGILYHIYELHKDADKFLHLGDSEFSYNDTELSLYQRVKGNCDFYPEFLEEEITEENGIRAFYTHGHLYQVNQTRMKLAEKAKELGCLFAFYGHTHVAKYEQIGGIHVINPGSISQSRSQIEETFAELVYKEDENTIILNFRNRENQIIETVKIEFLEHHHHHH,soluble
5,VRRDRAPPERGGAGTSQDGTSKNWFKITIPYGRKYDKAWLLSMIQSKCSVPFTPIEFHYENTRAQFFVEDASTASALKAVNYKILDRENRRISIIINSSAPPHTILNELKPEQVEQLKLIMSKRYDGSQQALDLKGLRSDPDLVAQNIDVVLNRRSSMAATLRIIEENIPELLSLNLSNNRLYRLDDMSSIVQKAPNLKILNLSGNELKSERELDKIKGLKLEELWLDGNSLCDTFRDQSTYISAIRERFPKLLRLDGHELPPPIAFDVEAPTTLPP,soluble
6,MSLKMTNNTVLITGGSAGIGLELAKRLLELGNEVIICGRSEARLAEAKQQLPNIHTKQCDVADRSQREALYEWALKEYPNLNVLVNNAGIQKEIDFKKGTEELFVDGDEIELNFQAPVHLSALFTPHLMKQPEAAIVQVTSGLAFNPLAVYPVYCATKAALHSFSLTLRHHVRDTSVEVIEMAPPMVDTGLNQKSRDKQGLTYRGISSEEYVQYFLDGLKEGKQEITNERVEGLRDATRADYDRLFEQMNTQEGHHHHHH,soluble
7,MGHHHHHHSHMERIVMPANYVHTRTTPFWTKETAPASIWRRHLDAGTRQGVYPRLCVMQGTIRYYGYADETSPEPVETLTIEAGQFGVFPPEKWHRIEALSDDTLFNVDFYVDPKILIEG,soluble
8,MAYVKERIYESMFIIAPNVPEEERENLVERVKKIIEERVKGKIDKVERMGMRKFAYEIKKFNEGDYTVIYFRCDGQNLQELENFYRVTPEIIRWQTFRRFDLEKKERKAQREKAAAEATESSEGGSED,not soluble
9,MGFDFLGFTVRQFPVGKYHSGKSSSGKLLGYKTLITPSKAKLKIHAQKIGKLIDEHKAVPQSDLIAHLNPVIRGWTNYYSCVVSKRIFNQADTTLFSQLKAWAEHRHPNKSSRWSCQKYWQTVGSDNWVFKPHNQKIRLLKHRETRLEHHHHHH,soluble
10,MAHHHHHHMNFVFIYIVLISFFNKSRCDNELSVKGSLTVANLKISSKNNQENGILFVNEESEYKIGLNERSELIISKKKKPLVTIDEHENLNFFNLDLSVKILNIQGILKIMNVNQFQMFVHEDFSNSSNTKGWIGDQFFNYTSSCGGINLLGGYGKLSKGEIYKTFENIPSHSQIRIKCNFHFIDNWDNQTAYMKITTDEKEEKYYVWTDTHSQINKQNSINICGNTTGESKFFSIIDIIIPHNSNKLIIYFGTNIQKDEPNLISWGISNFQIYLI,not soluble
11,SESLRIIFAGTPDFAARHLDALLSSGHNVVGVFTQPDRPAGRGKKLMPSPVKVLAEEKGLPVFQPVSLRPQENQQLVAELQADVMVVVAYGLILPKAVLEMPRLGCINVHGSLLPRWRGAAPIQRSLWAGDAETGVTIMQMDVGLDTGDMLYKLSCPITAEDTSGTLYDKLAELGPQGLITTLKQLADGTAKPEVQDETLVTYAEKLSKEEARIDWSLSAAQLERCIRAFNPWPMSWLEIEGQPVKVWKASVIDTATNAAPGTILEANKQGIQVATGDGILNLLSLQPAGKKAMSAQDLLNSRREWFVPGNRLV,soluble
12,MSLKDMSYQAVMGRNNEIMKNAIGLDYSSFEQEGIGFDYEKMMSETGYTLQDIEAIQSQYAVGNTPLIELKNLTKLARKCAKEGKGARIFVKDEAMNASGSFKARRAATAVYHAKQMGYKGVIAATSGNYGAAVASQAAMQGLKCIIVQECYDSNGVGQPEIIEKARKCEAYGAEVVQLTVGPELFYTFLVLLEETGYFNASLYSPFGIAGVETLGYELAIQFREKYKKDPDIVVCTNAGGGNLTGTARGLIKAGSINTKVVGASVDLKGLHMASDNQFNKKSFTTGHTGFGIPYCTWPDRSDVPRSAARPLRYMDRYVLVKQGEVFYTTELLAQLEGIERGPAGNTSLAAAFSLAQELDEDKAIVVQETEYTGAGKHICPQLTFARENGIDIKFGNPREEIAGVNLILPERPELLKCVDIDMNKIRNSFIKNCISNNHIDNIDKLSNRDIEFLMEEVKSSRDFVVDVLNNLEGHHHHHH,not soluble
13,GMVVNESMYQLGSVRSAIRELFEYGKKRAAIVGKENVYDFSIGNPSIPAPQIVNDTIKELVTDYDSVALHGYTSAQGDVETRAAIAEFLNNTHGTHFNADNLYMTMGAAASLSICFRALTSDAYDEFITIAPYFPEYKVFVNAAGARLVEVPADTEHFQIDFDALEERINAHTRGVIINSPNNPSGTVYSEETIKKLSDLLEKKSKEIGRPIFIIADEPYREIVYDGIKVPFVTKYYDNTLVCYSYSKSLSLPGERIGYVLVPDEVYDKAELYAAVCGAGRALGYVCAPSLFQKMIVKCQGATGDINAYKENRDLLYEGLTRIGYHCFKPDGAFYMFVKALEDDSNAFCEKAKEEDVLIVAADGFGCPGWVRISYCVDREMIKHSMPAFEKIYKKYNK,soluble
14,MSLEKLNLICVDDQREVLSAVLQDLEPLNKWLNIEDCESADEVLELMDELDADGEMIALIISDHVMPGKTGVELLTEISKDSRFVRTRKVLLTGQATHTDTINAINSAGIDRYFEKPWQANQLIECVRNLVTQYIFDEGHHHHHH,not soluble
15,MNNLIKAINELKKEKNAIILGHYYQKGEIQDIADYVGDSLALAQLAAKTEADIIVMCGVHFMGETAKVLCPDKKVLVPDMEAGCSLADSCPADQFAQFVKEHPGHTVISYVNTTAAVKAVTDVVVTSTNARQIVESFPKDEKIIFGPDRNLGNYINSVTNRNMLLWDGACHVHEQFSVEKIVELKTQHPEALVLAHPECKSTVLKLADVVGSTAALLKYAVNHPENTYIVATESGILHEMQKKCPQTTFIPAPPNDSTCGCNECSFMRLNTLEKLYECLKNESPEITVDPEIAEKAVRPIQRMLEISAKLGL,not soluble
16,MVLKTVALVGNPNVGKTTIFNALTGLRQHVGNWPGVTVEKKEGIMEYREKEFLVVDLPGIYSLTAHSIDELIARNFILDGNADVIVDIVDSTCLMRNLFLTLELFEMEVKNIILVLNKFDLLKKKGAKIDIKKMRKELGVPVIPTNAKKGEGVEELKRMIALMAEGKVTTNPIIPRYDEDIEREIKHISELLRGTPLAEKYPIRWLALKLLQRDEEVIKLVLKYLGQEKMDEILKHISELEEKYKRPLDIVIASQKYEFLEQLLRKFVVHE,soluble
17,MAHHHHHHMPRVQLFIDNGGYSVKALYLPASADTSNRSAATHASALTSSSTHGEAAATAATVAPAPKVLVVPNCVGAAVYAGTGIMGDQLDHLPHYHGLMVRRPVDRGFVVDGGLQARVWEHVLQHFSIESEEEVDVWLVVPFAAPKAVAQLLWLLCTRSFRFGSVTVVSSSFMSLIAYKFARGASAPSSAARKRPRSTVDTDAQESPGCSGSSATGGGMAIMVDVGFSATTVVPYVNYIPVYSSVVRLDVGGKVLTNRLKEYISFSQMNVIEDTWLINHVKEQCCVVARHPRRSLQRYAALWKGRTRDEVEAAAGALSTLRREDGGSGDGQASRSQRPGAPVAGVLTSPDVPIRYYLPTIPALLPLGVLEAELPSRLPKTSGVDAAALQHLLLCQERFLIPELLFTPADVGINQQGVAQAITEGIFQRGLLQHLTKLLRPLLLHNVCVYGGTASQPNFRDRLEAEVAAVAPQSPDCDADLDLKDSKRSSSSSRHGATEACADRTTCLSATPALPEFLLKAGGASTDLSLQPLLGAWCLLSATVDSGSNGGASQRELLRLRALVHERSGIELQHPPAGRVTVETFQHALERML,not soluble
18,MSSALISSEQALNDYFTALLDEETAEFESTLKPEPVWEMAPAIQSVPNKSYFDAEIEELELPNLEDVQRLLSQLESSNPVADLDLEQILEENTAKIAKIDPVVQPCSVVEEIQEWEIETSYVEPDIETPESVIEDDLEPESVDTEAEREIAIETSIEEPVAEVPVVEAQAVPETQAGRNKLGTWTNTIREKDFQVLYFDVNGVTFAVPLDELGGIHRMTTLNHLIGRPAWYLGLQTNRDSQLDVVDTAKWVMAEKLRDESYKQAYQYIVMLGESAWGLASTQLMGTELLSTEKVRWREQVGKRPWLAGMVKEKMCALIHVQALIAMLNAGLDVKALEN,not soluble
19,MSLVTQQALPPVVSSAASPSPQASAPLPTDKTAIAIVLQGFGYSDALTYDVLSRIPAPVAVGISPYVSNISDIIARAHASHREVYVTLPMQSAHPERVDEGPHALGYGNSAADDQRELEWCLSRAAGAEGLTDASENGDDQPGGGYATSPDFSPIASAISSKGLLYLAGSAQDGRRTRGMTATAWIDGDTDAATLDSRLAALLPQDGKPAKILLMVGPITPVMIDRLANWLKGPAAQNFVVVPPSAFADSGISNDQAANLSPSNPVAPLEGHHHHHH,soluble
20,MKYKAVLVDFGNTLVGFKPVFYEKVYQVLKDNGYDLDLRKVFRAYAKAMGMINYPDEDGLEHVDPKDFLYILGIYPSERLVKELKEADIRDGEAFLYDDTLEFLEGLKSNGYKLALVSNASPRVKTLLEKFDLKKYFDALALSYEIKAVKPNPKIFGFALAKVGYPAVHVGDIYELDYIGAKRSYVDPILLDRYDFYPDVRDRVKNLREALQKIEEMNKE,soluble
21,SGELLGTLSISHDVTEWHKIQQNLRDEMERRKDTEVALAQRDTILQTILDASPDSIGIFNENMVYQACNKPFVNALGISEVSDLIGKRLQDVIPVEMYTRLETSDLHALRQAEPVRYIDKVVSSDGHITWFDVVKSPFKDKA,not soluble
